{"source": "patent US5811393A", "about": "(The Childrens Medical Center Corp., priority 1993, dated 1998)", "molecules": {"B1": {"name": "HB-EHM: novel heparin binding growth factor with EGF-homologous segment, purified from U-937 lymphoma cell conditioned medium, about 22 kD (protein)", "chain": "RVTLSSKPQALATPNKEEHGKRKKKGKGLGKKRDPCLRKYKDFCIHGECKYVKELRAPSCICHPGYHGERCHGLS", "modifications": "O-linked glycosylation (suggested by O-glycanase treatment; the threonines predicted at positions 2 and 12 of the form first sequenced were not detected in protein sequencing)"}}, "assay": "Heparin affinity chromatography (NaCl elution from immobilized heparin)", "format": "binding", "conditions": "partially purified sample, 0.2-2M NaCl gradient, pH 7.5", "excerpt": "Heparin affinity chromatography has been used extensively for purifying and characterizing a variety of these growth factors. Acidic FGF (aFGF) and basic FGF (bFGF) bind to immobilized heparin columns and are eluted with 1.0M to 1.2M NaCl and 1.5M to 1.8M NaCl, respectively (Folkman and Klagsbrun, 235 Science 442, 1987; Lobb et al., 261 J. Biol. Chem. 1924, 1986). Several growth factors which are structurally homologous to aFGF and bFGF also have an affinity for heparin (see, for example, Rubin et al., 86 Proc. Natl. Acad. Sci. USA 802, 1989). PDGF binds to immobilized heparin, but with relatively low affinity, being eluted with only 0.5M NaCl. […] Lobb et al. (261 J. Biol. Chem. 1924, 1986) report the partial purification by heparin affinity of two classes of growth factors mitogenic for endothelial cells. Gospodarowicz et al. (81 Proc. Natl. Acad. Sci. USA 6963, 1984) report the use of heparin affinity in the purification of bovine brain and pituitary fibroblast growth factors. Shing et al. (29 J. Cell Biochem. 275, 1985) report a chondrosarcoma-derived growth factor purified by heparin-Sepharose affinity chromatography and Bio Rex 70 cation exchange chromatography. […]\nHB-EHM was purified as follows. Growth factor activity was monitored during the purification procedures using BALB/c mouse 3T3 cells as target cells and measuring [^3 H]-thymidine incorporation into DNA. […]", "data": [{"molecule": "B1", "values": [{"measurement": "NaCl concentration eluting from the TSK-heparin column", "value": "1 to 1.2", "unit": "M"}]}]}
